Experimental data from the supplement of paper PMC10567573.

B1: NFE2L1 (parent)
chain: TLDGYGIHPKSIDLDNYFTARRLL

Variants of: B1
Experiment: protein stability index of a GFP-peptide fusion (GPS, HEK-293T) (PSI 1-6); higher = more stable
Conditions: c terminus: a fixed tail appended
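Also: lentivirally expressed fusions sorted by FACS into six bins by GFP to DsRed ratio, PSI derived from sequencing read proportions per bin multiplied by bin number.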

Variant | protein stability index
TLDGYGIHPKSIDLDNYFTARRHL [L23H] | 2.18
TLDGYGIHPKSIDLDNYFTARRGL [L23G] | 2.42
TLDGYGIHPKSIDLDNYFTARRYL [L23Y] | 2.33
TLDGYGIHPKSIDLDNYFTARRRL [L23R] | 3.19
TLDGYGIHPKSIDLDNYFTARRKL [L23K] | 3.26
TLDGYGIHPKSIDLDNYFTARRDL [L23D] | 2.4
TLDGYGIHPKSIDLDNYFTARRPL [L23P] | 2.54
TLDGYGIHPKSIDLDNYFTARRML [L23M] | 2.03
TLDGYGIHPKSIDLDNYFTARRWL [L23W] | 1.82
TLDGYGIHPKSIDLDNYFTARRFL [L23F] | 1.93
TLDGYGIHPKSIDLDNYFTARRSL [L23S] | 3.05
TLDGYGIHPKSIDLDNYFTARRNL [L23N] | 2.32
TLDGYGIHPKSIDLDNYFTARRCL [L23C] | 2.41
TLDGYGIHPKSIDLDNYFTARRIL [L23I] | 1.64
TLDGYGIHPKSIDLDNYFTARRQL [L23Q] | 2.71
TLDGYGIHPKSIDLDNYFTARRTL [L23T] | 2.17
TLDGYGIHPKSIDLDNYFTARRVL [L23V] | 1.66
TLDGYGIHPKSIDLDNYFTARRAL [L23A] | 2.62
TLDGYGIHPKSIDLDNYFTARREL [L23E] | 2.6
TLDGYGIHPKSIDLDNYFTARRLG [L24G] | 2.56
TLDGYGIHPKSIDLDNYFTARRLI [L24I] | 1.75
TLDGYGIHPKSIDLDNYFTARRLK [L24K] | 2.9
TLDGYGIHPKSIDLDNYFTARRLD [L24D] | 2.69
TLDGYGIHPKSIDLDNYFTARRLC [L24C] | 1.84

Variant | protein stability index
TLDGYGIHPKSIDLDNYFTARRLN [L24N] | 2.48
TLDGYGIHPKSIDLDNYFTARRLM [L24M] | 2.5
TLDGYGIHPKSIDLDNYFTARRLH [L24H] | 2.14
TLDGYGIHPKSIDLDNYFTARRLA [L24A] | 2.26
TLDGYGIHPKSIDLDNYFTARRLE [L24E] | 2.79
TLDGYGIHPKSIDLDNYFTARRLF [L24F] | 2.42
TLDGYGIHPKSIDLDNYNTARRLL [F18N] | 3
TLDGYGIHPKSIDLDNYQTARRLL [F18Q] | 2.69
TLDGYGIHPKSIDLDNYTTARRLL [F18T] | 2.25
TLDGYGIHPKSIDLDNYGTARRLL [F18G] | 2.67
TLDGYGIHPKSIDLDNYETARRLL [F18E] | 2.71
TLDGYGIHPKSIDLDNYATARRLL [F18A] | 2.93
TLDGYGIHPKSIDLDNYPTARRLL [F18P] | 2.89
TLDGYGIHPKSIDLDNYMTARRLL [F18M] | 2.08
TLDGYGIHPKSIDLDNYYTARRLL [F18Y] | 1.99
TLDGYGIHPKSIDLDNYWTARRLL [F18W] | 1.7
TLDGYGIHPKSIDLDNYSTARRLL [F18S] | 2.16
TLDGYGIHPKSIDLDNYDTARRLL [F18D] | 3.26
TLDGYGIHPKSIDLDNYITARRLL [F18I] | 1.92
TLDGYGIHPKSIDLDNYRTARRLL [F18R] | 2.31
TLDGYGIHPKSIDLDNYVTARRLL [F18V] | 3.05
TLDGYGIHPKSIDLDNYHTARRLL [F18H] | 2.34
TLDGYGIHPKSIDLDNYLTARRLL [F18L] | 1.89
TLDGYGIHPKSIDLDNYCTARRLL [F18C] | 2.03

Variant | protein stability index
TLDGYGIHPKSIDLDNYKTARRLL [F18K] | 2.88
TLDGYGIHPKSIDLHNYFTARRLL [D15H] | 1.89
TLDGYGIHPKSIDLMNYFTARRLL [D15M] | 1.84
TLDGYGIHPKSIDLQNYFTARRLL [D15Q] | 1.84
TLDGYGIHPKSIDLANYFTARRLL [D15A] | 1.9
TLDGYGIHPKSIDLINYFTARRLL [D15I] | 2.47
TLDGYGIHPKSIDLSNYFTARRLL [D15S] | 2.44
TLDGYGIHPKSIDLCNYFTARRLL [D15C] | 1.48
TLDGYGIHPKSIDLGNYFTARRLL [D15G] | 2.3
TLDGYGIHPKSIDLLNYFTARRLL [D15L] | 1.57
TLDGYGIHPKSIDLENYFTARRLL [D15E] | 1.96
TLDGYGIHPKSIDLTNYFTARRLL [D15T] | 1.77
TLDGYGIHPKSIDLWNYFTARRLL [D15W] | 2.21
TLDGYGIHPKSIDLFNYFTARRLL [D15F] | 2.6
TLDGYGIHPKSIDLKNYFTARRLL [D15K] | 1.72
TLDGYGIHPKSIDLVNYFTARRLL [D15V] | 1.72
TLDGYGIHPKSIDLYNYFTARRLL [D15Y] | 1.46
TLDGYGIHPKSIDLPNYFTARRLL [D15P] | 2.06
TLDGYGIHPKSIDLRNYFTARRLL [D15R] | 2.74
TLDGYGIHPKSIDLNNYFTARRLL [D15N] | 2.2
TLDGYGIHPKSIDLDNTFTARRLL [Y17T] | 2.24
TLDGYGIHPKSIDLDNKFTARRLL [Y17K] | 2.57
TLDGYGIHPKSIDLDNAFTARRLL [Y17A] | 1.88
TLDGYGIHPKSIDLDNLFTARRLL [Y17L] | 2.06

Variant | protein stability index
TLDGYGIHPKSIDLDNWFTARRLL [Y17W] | 1.5
TLDGYGIHPKSIDLDNCFTARRLL [Y17C] | 1.71
TLDGYGIHPKSIDLDNGFTARRLL [Y17G] | 2.32
TLDGYGIHPKSIDLDNDFTARRLL [Y17D] | 2.64
TLDGYGIHPKSIDLDNNFTARRLL [Y17N] | 2.59
TLDGYGIHPKSIDLDNFFTARRLL [Y17F] | 3.17
TLDGYGIHPKSIDLDNSFTARRLL [Y17S] | 2.55
TLDGYGIHPKSIDLDNIFTARRLL [Y17I] | 2.25
TLDGYGIHPKSIDLDNQFTARRLL [Y17Q] | 2.92
TLDGYGIHPKSIDLDNMFTARRLL [Y17M] | 2.36
TLDGYGIHPKSIDLDNPFTARRLL [Y17P] | 3.23
TLDGYGIHPKSIDLDNHFTARRLL [Y17H] | 2.56
TLDGYGIHPKSIDLDNVFTARRLL [Y17V] | 2.21
TLDGYGIHPKSIDLDNRFTARRLL [Y17R] | 2.58
TLDGYGIHPKSIDLDNEFTARRLL [Y17E] | 3.09
TLDGYGIHPKSIDLDNYFTAFRLL [R21F] | 1.77
TLDGYGIHPKSIDLDNYFTAPRLL [R21P] | 2.05
TLDGYGIHPKSIDLDNYFTAMRLL [R21M] | 1.86
TLDGYGIHPKSIDLDNYFTALRLL [R21L] | 1.9
TLDGYGIHPKSIDLDNYFTAARLL [R21A] | 1.67
TLDGYGIHPKSIDLDNYFTAKRLL [R21K] | 1.96
TLDGYGIHPKSIDLDNYFTAWRLL [R21W] | 1.08
